Here are results for one substance from paper PMC7199903.

In the assay the target is recombinant soluble SARS-CoV-2 spike (S) glycoprotein, prefusion-stabilised trimer (2P, GSAS, C-terminal trimerization motif) (SARS-CoV-2). The assay can be described thus: negative-stain EM.

Broadly, the stoichiometry N is the number of molecules, sites or subunits per partner or assembly. As for “recombinant soluble SARS-CoV-2 spike (S) glycoprotein, prefusion-stabilised trimer (2P, GSAS, C-terminal trimerization motif) (domain or fragment)”, the stoichiometry N came out at 3.
